{"source": "patent US20090263410A1", "about": "“USE OF TGF-B1 INHIBITOR PEPTIDES IN THE PREPARATION OF AN IMMUNE RESPONSE MODULATING AGENT” (Proyecto De Biomedicina Cima, S.L., priority 2005, published 2009)", "molecular_target": "T1, TGF-β1 (Mus musculus, UniProt P04202)", "T1 construct": "an in vivo system wherein TGF-β1 acts as supposed antagonist of the cytokines induced in this model; from tissue; host or cells: living BALB/c mice (Harlan), endogenous TGF-β1; read-out in serum", "T1 sequence (P04202 279-390 limits assumed)": "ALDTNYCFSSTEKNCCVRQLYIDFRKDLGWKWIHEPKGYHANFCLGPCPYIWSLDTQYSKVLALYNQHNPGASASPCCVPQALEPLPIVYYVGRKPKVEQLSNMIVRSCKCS", "assay": "In vivo activity of recombinant adenovirus for mouse IL-12: IFN-γ and NO levels in serum", "set-up": "species or system BALB/c mice", "from_the_text": "This example studies the effect of peptide p144 in an in vivo system wherein TGF-β1 acts as supposed antagonist of the cytokines induced in this model. The production of mouse IL-12 by the expression of a transgen included in the recombinant adenovirus, induces an inflammatory state through the induction of a cascade of factors, including IFN-γ and nitric oxide. TGF-β1 has been described as an inhibitor of the production and biological action of IL-12, IFN-γ and NO (Pardoux C. et al., 1999; Schini V. B. et al., 1992). […]\nBlood samples were extracted from both groups on days 6 and 9 after immunization for the subsequent quantification of IFN-γ and NO levels in serum.\nThe quantity of IFN-γ was measured by a commercial ELISA (Mouse IFN-γ Duoset ELISA Development System, Genzyme, Cambridge and OPTEIA Mouse IFN-γ Ser, Pharmingen, San Diego, USA) in accordance with the manufacturer's instructions. The results were expressed as pg/ml of IFN-γ and using a standard curve of known quantities of IFN-γ. […]\nNO2* emission is in the red and infrared region of the light spectrum and is detected by a red-sensitive photomultiplier tube. This signal is quantified and the data obtained are collected and processed by a computer."}
{"substance": "p144: peptide inhibiting TGF-β1 whose amino acid sequence corresponds to SEQ ID NO: 1 (TSLDASIIWAMMQN; Synthetic Construct from human TGB-Beta1 type III receptor.Domain730-743)", "values": [{"measurement": "serum levels of IFN-γ", "setting": "RAd IL-12 1×10^8 pfu i.p. plus p144 daily 100 μg for 5 days, versus RAd IL-12 alone", "result": "increases"}, {"measurement": "NO serum levels", "setting": "day 6, RAd IL-12 1×10^8 pfu i.p. plus p144, versus RAd IL-12 alone", "result": "greater level"}]}
